Measurements: paper PMC8472933

Assays:
[1] = target: Menangle virus P protein C-terminal region, P209-388 (coiled-coil, linker and binding domain) (Menangle virus); assay: AUC
[2] = target: Menangle virus P protein C-terminal region, P209-388 (coiled-coil, linker and binding domain) (Menangle virus); assay: SEC-MALLS

Substance: Menangle virus P protein C-terminal region, P209-388 (coiled-coil, linker and binding domain) (domain or fragment)
- Kd [1]: 58 nM
- stoichiometry N [1]: 4
- stoichiometry N [2]: 4
